To fix the notation:
T1: human B7-DC on 293T cells (human, UniProt Q9BQ51 20-273)
T1 construct: whole, on cells; also called PD-L2
T1 sequence (looked up): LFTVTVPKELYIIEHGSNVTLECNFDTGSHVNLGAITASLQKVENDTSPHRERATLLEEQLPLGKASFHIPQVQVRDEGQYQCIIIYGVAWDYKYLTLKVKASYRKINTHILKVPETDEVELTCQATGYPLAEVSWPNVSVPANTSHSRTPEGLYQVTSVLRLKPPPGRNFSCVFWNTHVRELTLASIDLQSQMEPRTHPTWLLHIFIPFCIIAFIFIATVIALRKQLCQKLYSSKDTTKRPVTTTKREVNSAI

B1: 3.15G8 (antibody, IgG4, V domains shown)
VH: EVQLVESGGGLVQPGGSLRLSCAASGFTFSSYWMSWVRQAPGKGLEWVANIKQDGGEKYYVDSVKGRFTISRDNAKNSLFLQMNSLRAEDTAVYYCARVQLYSDYFDYWGQGTLVTVSS
VL: DIQMTQSPSSVSASVGDRVTITCRASQGISSWLAWYQQKSGKAPKLLIYAASGLQSGVPSRFSGSGSGTDFTLTISSLQPEDLATYYCQQSHSLPPTFGQGTKVEIK
notes: also called mAb 3.15G8
B2: 2.20A8 (antibody, IgG2, V domains shown)
VH: EVQLLESGGGLVQPGGSLRLSCAASGFTFSNYAMSWVRQAPGKGLEWVSAIRGSGGSTYYADSVKGRFTISRDNSKNTLYLQMNSLRAEDTAVYYCAKDLHYDSSGYLDYWGQGTLVTVSS
VL: B1 VL with S30R, S40P, A51I, G53R, L83F, S91A, H92N, L94F, P96L, Q100G
notes: also called mAb 2.20A8
B3: 2.14H9 (antibody, IgG2, V domains shown)
VH: EVQLVESGGGLVQPGGSLRLSCAASGFTFSRYWMSWVRQAPGKGLEWVANIKQDGSEKYYVDSVKGRFTISRDNAKNSLYLQMNSLRAEDTAVYYCAREGGWFGELAFDYWGQGTLVTVSS
VL: EIVLTQSPGTLSLSPGERATLSCRASQRVSSSYLAWYQQKPGQAPRLLIYDASSRATGIPDRFSGSGSGTDFTLTISRLEPEDFAVYYCQQYGSLPWTFGQGTEVEIK
notes: also called mAb 2.14H9
B4: 2.7A4 (antibody, IgG2, V domains shown)
VH: EVQLVESGGGLVKPGGSLRLSCAASGFTFSTYSMNWVRQAPGKGLEWVSSISSSGDYIYYADSVKGRFTISRDNAKNSLFLQMNSLKAEDTAVYYCARDLVTSMVAFDYWGQGTLVTVSS
VL: SYELTQPPSVSVSPGQAARITCSGDALPQKYVFWYQQKSGQAPVLVIYEDSKRPSGIPERFSGSSSGTMATLTISGAQVEDEADYYCYSTDRSGNHRVFGGGTRLTVL
notes: also called mAb 2.7A4
B5: 2.9D10 (antibody, V domains shown)
VH: EVQLVESGGGLVQPGGSLRLSCAASGFTFSSYWMSWVRQAPGKGLEWVANIKQDGGEQYYVDSVKGRFTISRDNAKNSLYLQMNSLRAEDTAVYYCARDWNYGYYDMDVWGQGTTVTVSS
VL: EIVLTQSPGTLSLSPGERATLSCRASQSVSSNYLAWFQQKPGQAPRLLIFGTSSRATGIPDRFSGSGSGTDFTLTISRLEPEDFAVYYCQQYGSSIFTFGPGTKVDIK
notes: Tested as hybridoma supernatant or purified antibody; also called mAb 2.9D10

One may read the IC50 as the concentration that inhibits the measured activity by half.

Substitutions are numbered along the chain they refer to.

T3 sequence (G7PSE7 entry or part of it): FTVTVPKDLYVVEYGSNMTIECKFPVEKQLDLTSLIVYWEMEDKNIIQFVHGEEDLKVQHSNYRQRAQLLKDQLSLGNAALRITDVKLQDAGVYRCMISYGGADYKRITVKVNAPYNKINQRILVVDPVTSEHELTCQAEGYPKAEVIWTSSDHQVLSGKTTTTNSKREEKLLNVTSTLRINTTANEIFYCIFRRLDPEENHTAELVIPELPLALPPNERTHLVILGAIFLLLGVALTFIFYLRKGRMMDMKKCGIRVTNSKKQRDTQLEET

One assay deals with T2, mouse B7-H1 on J558 cells (mouse, UniProt Q9EP73 19-290).
T2 construct: whole, on cells
T2 sequence (Q9EP73 19-290): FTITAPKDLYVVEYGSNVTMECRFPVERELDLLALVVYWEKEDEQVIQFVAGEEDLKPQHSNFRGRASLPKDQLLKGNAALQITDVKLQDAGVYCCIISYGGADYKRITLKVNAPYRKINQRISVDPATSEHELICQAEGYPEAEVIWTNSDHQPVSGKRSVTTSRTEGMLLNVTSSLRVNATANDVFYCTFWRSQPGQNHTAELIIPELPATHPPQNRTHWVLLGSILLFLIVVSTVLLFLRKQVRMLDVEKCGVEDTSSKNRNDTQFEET
Put plainly: FACS on J558 cells expressing mouse B7-H1. As for the experimental part:
(§1) The ability of the purified antibodies to bind to human B7-H1, B7-DC, mouse B7H1 and cynomolgus monkey B7-H1 was determined by FACS analysis. […] Mouse J558 cells expressing mouse B7-H1 were obtained from ATCC (catalog #TIB-6). Cells were resuspended in PBS containing 2% FBS (FACS buffer) and seeded at 50000 cells/well into V-bottomed plates. Anti-B7-H1 and isotype control antibodies diluted in FACS buffer were added at a final concentration of 5 μg/ml and plates were incubated for 1 h at 4° C. […] Mouse anti-human B7-DC (PD-L2) antibody (R&D systems cat #MAB1224, detected with goat anti-mouse Fc Cy5, Jackson Immunoresearch) was used as a positive control for B7-DC expression. PE-conjugated rat anti-mouse B7-H1 antibody (eBioscience, clone M1H5, detected with goat anti-rat Fc Cy5, Jackson Immunoresearch) was used as a positive control for mouse B7-H1 expression.
B1: the binding result was “no binding (tested: 5 µg/ml)”.
For B2, the binding result is on record as “no binding (tested: 5 µg/ml)”.
For B3, the binding result is listed as “no binding (tested: 5 µg/ml)”.
On to B4, for which the binding result is on record as “no binding (tested: 5 µg/ml)”.
Regarding B5, the binding result is listed as “no binding (tested: 5 µg/ml)”.

The next assay concerns the target T3, cynomolgus monkey B7-H1 expressed on cells (cynomolgus monkey, UniProt G7PSE7 19-290).
T3 construct: whole, on cells; also called cyno B7-H1; cynomologus B7-H1
Put plainly: FMAT, hybridoma supernatant, 293T cells expressing cynomolgus monkey B7-H1. How it is done:
(§2) Immediately after plating, 10 μl/well of hybridoma supernatants were added and plates incubated for 1.5 hr at room temperature.
In the case of B1, the Count was determined as 64, the FL1 was 8650 and the “FL1 × count” value was 553000.
The like results for B2 were, in that order, 65, 7930 and 515000.
On to B3, for which the Count came out at 56, the FL1 was 6780 and the “FL1 × count” value was 380000.
The like results for B4 were, in that order, 59, 8700 and 513000.
In the case of B5, the Count was 54, the FL1 is 5530 and the “FL1 × count” value came to 298000.

In a further assay the target is T4, human B7-H1 expressed on cells (human, UniProt Q9NZQ7 19-290).
T4 construct: whole, on cells; also called PD-L1; huB7-H1
T4 sequence (Q9NZQ7 19-290): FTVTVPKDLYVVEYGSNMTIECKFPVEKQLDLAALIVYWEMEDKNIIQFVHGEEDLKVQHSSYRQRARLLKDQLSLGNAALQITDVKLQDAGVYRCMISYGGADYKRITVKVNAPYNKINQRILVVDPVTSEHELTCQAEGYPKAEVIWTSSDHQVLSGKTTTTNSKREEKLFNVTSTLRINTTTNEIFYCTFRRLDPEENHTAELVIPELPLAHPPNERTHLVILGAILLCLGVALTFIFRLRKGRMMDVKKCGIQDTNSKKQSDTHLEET
Put plainly: FACS competition: inhibition of biotinylated PD-1/Fc (10 ug/ml) binding to human B7-H1 on ES-2 cells. As for the experimental part: Briefly, 50000 cells/well were plated in 50 μl of PBS into wells of a 384-well tissue culture plate (Corning Costar, catalog #3712). Next, 50 μl/well of a diluted monoclonal antibody was added at final concentration of […], 0.00016 nM and plates were incubated at 4 C for 1 hour. […] Cells were washed once and 100 μl/well of Cy5-conjugated streptavidin was added and plates were incubated at 4 C for 15 min before being washed again with PBS containing 2% FCS and being read on a FACSCalibur instrument.
As for B1, the IC50 turned out to be 0.148 nM.
Take B2: the IC50 is 0.198 nM.
The same measure, in the same setting: with B4 the figure was 0.077 nM; with B5, 0.109 nM.

For the next assay, the target named is T3, cynomolgus monkey B7-H1 expressed on …. Put plainly: FACS, 1 µg/ml antibody, anti-CD3-activated cynomolgus monkey T cells. How it is done: For activation of cynomolgus monkey T cells 96-well high binding plates were incubated with 100 μl/well of goat anti-mouse IgG Fc antibody diluted at 1 ug/ml in PBS at 4 C overnight. […] Cynomolgus monkey PBMC were isolated from peripheral blood (Bioreclamation, catalog #CYNWBCPT). Anti-CD3 mAb coated plates were washed with PBS and isolated PBMC were added in 200 ul of ICM media at ˜200000 cells/well and cultured for 72 hours. Cells were then harvested, washed in FACS buffer and mixed with diluted purified anti-B7-H1 antibodies or irrelevant human IgG2 or IgG4 antibodies at a final concentration of 1 ug/ml in 96-well V-bottom assay plate (50 ul/well). […] Cells were incubated for 1 hour at 4° C. before being washed again with FACS buffer and being read on a FACSCalibur instrument. Monkey T lymphocyte population was selected for analysis based on forward and side scatter as well as positive staining for CD3 marker and negative staining for 7-AAD.
(In general: In flow cytometry, cells or beads pass a laser one at a time.)
For B1, the geo mean was found to be 92.8.
B2 registered a geo mean of 80.7.
Same read-out and setting: with B3 the figure was 106.
Consider B4, for which the geo mean amounted to 104.
Still for that read-out and setting: with B5 the figure was 107.

The target of the next assay is T1, human B7-DC on 293T cells. Put plainly: FACS, 5 µg/ml antibody, 293T cells transfected with human B7-DC. How it is done: as §1
For the molecule B1, the geo mean came to 10.1.
Still for that read-out and setting: to B2 belongs 9.5; to B3, 11.4; to B4, 10.5.
For B5, the geo mean was 8.7.

A further assay deals with T2, mouse B7-H1 on J558 cells. Put plainly: FACS, 5 µg/ml antibody, J558 cells expressing mouse B7-H1. How it is done: as §1
B1 registered a geo mean of 3.2.
The same measure, in the same setting: to B2 belongs 3.3.
In turn, B3 came in with a geo mean of 3.
The same measure, in the same setting: with B4 the figure was 3.2.
Same read-out and setting: with B5 the figure was 3.2.

The target of a further assay is T4, human B7-H1 expressed on cells. Put plainly: FACS, 1 µg/ml antibody, anti-CD3-activated human T cells. As for the experimental part:
96-well high binding plates were incubated with 100 μl/well of anti-CD3 antibody diluted at 1 ug/ml in PBS (OKT3 clone, eBioscience, catalog #160037) at 4 C overnight. Human T cells were isolated from frozen leukopack using T cell enrichment kit (StemCell Technologies, catalog #19051). Anti-CD3 mAb coated plates were washed with PBS and purified T cells were added in 200 ul of ICM media at 360000 cells/well and cultured for 72 hours. T cells were then harvested, washed in FACS buffer and mixed with diluted purified anti-B7-H1 antibodies or irrelevant human IgG2 or IgG4 antibodies at final concentration of 1 ug/ml in 96-well V-bottom assay plate (50 ul/well). […] Cells were incubated for 30 min at 4° C. before being washed again with FACS buffer and being read on a FACSCalibur instrument. Live lymphocyte population was selected for analysis based on forward and side scatter as well as negative staining for 7-AAD.
Consider B1, for which the geo mean came to 48.
On the same count and under the same terms, with B2 the figure was 41; with B4, 49; with B5, 49.

A further assay shares this target. Put plainly: FMAT, hybridoma supernatant, 293T cells expressing human B7-H1. How it is done: as §2
As to B1, the Count came out at 22, the FL1 worked out at 8810 and the “FL1 × count” value amounted to 194000.
Regarding B2, the Count is 34, the FL1 was 10300 and the “FL1 × count” value was 350000.
Taken in the same sequence, the figures for B4 were 37, 6980 and 258000.
For the molecule B5, the Count was determined as 22, the FL1 amounted to 7180 and the “FL1 × count” value was 158000.

In a further assay the target is T1, human B7-DC on 293T cells. Put plainly: FACS on 293T cells transfected with human B7-DC. As for the experimental part:
as §1
For the molecule B1, the binding result is given as “no binding (tested: 5 µg/ml)”.
As for B2, the binding result is recorded as “no binding (tested: 5 µg/ml)”.
The same measure, in the same setting: to B3 belongs “no binding (tested: 5 µg/ml)”.
B4: the binding result was “no binding (tested: 5 µg/ml)”.
With B5, the binding result is reported as “no binding (tested: 5 µg/ml)”.

The target in a further assay is T4, human B7-H1 expressed on cells. Put plainly: FACS, 5 µg/ml antibody, 293T cells transfected with human B7-H1. As for the experimental part:
as §1
As for B1, the geo mean came out at 1180.
In turn, B2 gave a geo mean of 463.
Turning to B4, the geo mean was determined as 754.
Take B5: the geo mean came to 463.

The next assay shares this target. Put plainly: cell ELISA: biotinylated PD-1/Fc (1.25 ug/ml) on CHO-huB7-H1 cells after hybridoma supernatant (1:5); 0% = 100% inhibition. How it is done: 25000 cells/well were plated in 50 μl of media into wells of a 384-well tissue culture plate (Corning Costar, catalog #3712). Next day, 50 μl/well of diluted (1:5) hybridoma supernatant was added and plates were incubated at 4 C for 1 hour on a shaker. […] Cells were washed and fixed in 100 ul of PBS containing 3.7% formaldehyde and 3% bovine serum albumin for 20 min at room temperature. Cells were washed and incubated in 100 ul of PBS containing 0.6% H2O2 and 3% bovine serum albumin for 10 min at room temperature. Cells were washed and incubated in 50 μl of horseradish peroxidase-conjugated streptavidin diluted at 1:4000 for 30 min at 4° C. Cells were washed before signal detection.
On to B1, for which the “PD1-Fc binding to CHO-huB7-H1 cells (% of max)” value is 4 % of max.
The same measure, in the same setting: with B2 the figure was 0 % of max; with B4, 0 % of max.
On the same count and under the same terms, with B5 the figure was -5 % of max.

Source of the values: US20130034559A1 (AstraZeneca / MedImmune, published 2013).
